Where two headings read alike, the source gives them in different places.
Columns and labels:
[1] = target: SARS-CoV-2 Spike protein on live SARS-CoV-2 (SARS-CoV-2, UniProt P0DTC2 14-1273); experiment: cell-based or functional assay
[2] = target: T1, RBD-SD1 (SARS-CoV-2, UniProt P0DTC2 319-591)
[3] = target: T1, RBD-SD1; experiment: Octet, IgG1 on AHC biosensor
[4] = target: T2, SARS-CoV-2 Spike receptor binding domain, wild-type (SARS-CoV-2, UniProt P0DTC2 319-541); experiment: Octet, IgG1 on AHC biosensor
T2 construct: domain: RBD

[5] = target: T1, RBD-SD1; remark: listed apart in the source
[6] = target: T1, RBD-SD1; experiment: epitope analysis, FIG. 4B
[7] = target: T1, RBD-SD1; remark: listed apart in the source

B1: N-612-004 (antibody, V domains shown)
VH: EVQLVESGGGLVQPGGSLRLSCAASGFTFSSYYMHWVRQAPGKGLEWVSAISGSGGYTYYADSVKGRFTISRDNSKNTLYLQMNSLRAEDTAVYYCARDRDHAYDWGFDVWGQGTLVTVSS
VL: DIQMTQSPSSLSASVGDRVTITCQASQDISNYLNWYQQKPGKAPKLLIYDASNLETGVPSRFSGSGSGTDFTFTISSLQPEDIATYYCQQWADWPLTFGQGTKVEIK
- live SARS-CoV-2 neutralization IC50 [1]: 0.194 µg/mL

B2: 612-056 (scFv, V domains shown)
VH: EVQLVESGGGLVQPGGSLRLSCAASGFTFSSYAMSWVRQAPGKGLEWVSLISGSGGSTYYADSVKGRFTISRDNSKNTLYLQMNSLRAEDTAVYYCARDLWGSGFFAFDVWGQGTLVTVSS
VL: DIQMTQSPSSLSASVGDRVTITCQASQDISNYLNWYQQKPGKAPKLLIYDASNLETGVPSRFSGSGSGTDFTFTISSLQPEDIATYYCQQDAGTPLTFGQGTKVEIK
- Kd [2]: 4.77 nM

B3: N-612-056 (antibody, V domains shown)
VH: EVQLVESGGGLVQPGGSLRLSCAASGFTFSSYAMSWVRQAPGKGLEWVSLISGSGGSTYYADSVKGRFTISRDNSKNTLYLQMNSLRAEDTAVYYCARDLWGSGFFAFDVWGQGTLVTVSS
VL: DIQMTQSPSSLSASVGDRVTITCQASQDISNYLNWYQQKPGKAPKLLIYDASNLETGVPSRFSGSGSGTDFTFTISSLQPEDIATYYCQQDAGTPLTFGQGTKVEIK
- live SARS-CoV-2 neutralization IC50 [1]: 0.855 µg/mL

B4: N-612-014 (antibody, V domains shown)
VH: EVQLVESGGGLVQPGGSLRLSCAASGFTFSSYAMTWVRQAPGKGLEWVSYISGSGGGTYYADSVKGRFTISRDNSKNTLYLQMNSLRAEDTAVYYCARDRWASGWLAFDVWGQGTLVTVSS
VL: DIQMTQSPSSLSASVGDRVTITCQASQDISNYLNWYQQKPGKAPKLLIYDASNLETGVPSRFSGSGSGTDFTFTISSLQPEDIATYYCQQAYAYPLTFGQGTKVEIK
- live SARS-CoV-2 neutralization IC50 [1]: 0.00791 µg/mL
- binding result [3]: no binding (tested: 2x dilution series starting at 100 nM)
- binding result [4]: no binding (tested: 2x dilution series starting at 100 nM)

B5: N-612-017 (antibody, V domains shown)
VH: EVQLVESGGGLVQPGGSLRLSCAASGFTFSSYAMHWVRQAPGKGLEWVSAIWGSGSNTYYADSVKGRFTISRDNSKNTLYLQMNSLRAEDTAVYYCARGRDLAAFTKTAFDVWGQGTLVTVSS
VL: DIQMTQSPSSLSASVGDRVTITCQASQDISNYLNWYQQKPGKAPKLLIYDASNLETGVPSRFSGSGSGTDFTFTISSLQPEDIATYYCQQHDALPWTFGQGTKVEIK
- live SARS-CoV-2 neutralization IC50 [1]: 0.0756 µg/mL
- Kd [5]: 6.19 nM
- koff [5]: 0.00627 s⁻¹
- kon [5]: 1.01e+06 M⁻¹ s⁻¹
- koff [6]: 0.0019 s⁻¹

B6: 612-017 (scFv, V domains shown)
VH: EVQLVESGGGLVQPGGSLRLSCAASGFTFSSYAMHWVRQAPGKGLEWVSAIWGSGSNTYYADSVKGRFTISRDNSKNTLYLQMNSLRAEDTAVYYCARGRDLAAFTKTAFDVWGQGTLVTVSS
VL: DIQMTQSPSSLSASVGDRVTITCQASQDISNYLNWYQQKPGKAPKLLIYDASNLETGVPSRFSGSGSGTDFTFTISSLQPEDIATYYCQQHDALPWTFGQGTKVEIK
- Kd [7]: 10.2 nM

B7: N-612-044 (antibody, V domains shown)
VH: EVQLVESGGGLVQPGGSLRLSCAASGFTFSNYAMHWVRQAPGKGLEWVSAISGSGGSTYYADSVKGRFTISRDNSKNTLYLQMNSLRAEDTAVYYCARDLSFWLTYHLASAFDVWGQGTLVTVSS
VL: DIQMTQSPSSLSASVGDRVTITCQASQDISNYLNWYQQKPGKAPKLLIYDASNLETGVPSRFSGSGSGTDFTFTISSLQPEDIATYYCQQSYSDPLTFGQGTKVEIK
- binding result [3]: no binding (tested: 2x dilution series starting at 100 nM)
- binding result [4]: no binding (tested: 2x dilution series starting at 100 nM)

B8: N-612-007 (antibody, V domains shown)
VH: EVQLVESGGGLVQPGGSLRLSCAASGFTFSNYAMHWVRQAPGKGLEWVSAISGNGGSTGYADSVKGRFTISRDNSKNTLYLQMNSLRAEDTAVYYCARDRWYVKNAFDVWGQGTLVTVSS
VL: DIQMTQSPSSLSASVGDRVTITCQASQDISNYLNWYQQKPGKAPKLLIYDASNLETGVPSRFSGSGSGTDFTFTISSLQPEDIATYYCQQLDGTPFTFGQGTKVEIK
- live SARS-CoV-2 neutralization IC50 [1]: 0.0452 µg/mL
- binding result [3]: no binding (tested: 2x dilution series starting at 100 nM)
- binding result [4]: no binding (tested: 2x dilution series starting at 100 nM)

B9: N-612-002 (antibody, V domains shown)
VH: EVQLVESGGGLVQPGGSLRLSCAASGFTFSSYTMHWVRQAPGKGLEWVSAISGSGGSTYYADSVKGRFTISRDNSKNTLYLQMNSLRAEDTAVYYCARDLFDFWGFDVWGQGTLVTVSS
VL: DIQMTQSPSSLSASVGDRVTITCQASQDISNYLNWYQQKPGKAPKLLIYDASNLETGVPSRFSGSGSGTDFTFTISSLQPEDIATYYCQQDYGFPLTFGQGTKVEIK
- binding result [3]: no binding (tested: 2x dilution series starting at 100 nM)
- binding result [4]: no binding (tested: 2x dilution series starting at 100 nM)
